Usually Kd stands for the equilibrium constant for the complex coming apart.

Data on three substances can be found in paper PMC12210985.

Series [1] concerns MBP-Crp-His6 (Shewanella oneidensis MR-1). Nature of the series: MST. The conditions noted are these: EMSA: 2 mM EDTA, 20 mM KCl, 0.5 mM DTT, 4% Ficoll-400, pH 8.0, 2 ug poly(dI-dC), 10 nM probe, 10 uM cAMP for Crp; MST: 1x PBS pH 7.4, 0.05% Tween-20, 25 C.
Series [2] deals with ArcA-P (Shewanella oneidensis MR-1). In words: MST. The conditions noted are these: phosphorylated ArcA; EMSA: 2 mM EDTA, 20 mM KCl, 0.5 mM DTT, 4% Ficoll-400, pH 8.0, 2 ug poly(dI-dC), 10 nM probe, 10 uM cAMP for Crp; MST: 1x PBS pH 7.4, 0.05% Tween-20, 25 C.
Series [3] has as its target T1, MBP-Crp (Shewanella oneidensis MR-1) (UniProt Q8EJ49).
T1 sequence: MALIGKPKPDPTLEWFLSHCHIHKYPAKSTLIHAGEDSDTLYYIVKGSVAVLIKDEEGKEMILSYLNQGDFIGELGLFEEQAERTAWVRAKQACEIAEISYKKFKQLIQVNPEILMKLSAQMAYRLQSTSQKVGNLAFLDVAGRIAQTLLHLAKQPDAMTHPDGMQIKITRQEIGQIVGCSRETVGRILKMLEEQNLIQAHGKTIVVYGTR
Nature of the series: EMSA. As to conditions: EMSA: 2 mM EDTA, 20 mM KCl, 0.5 mM DTT, 4% Ficoll-400, pH 8.0, 2 ug poly(dI-dC), 10 nM probe, 10 uM cAMP for Crp; MST: 1x PBS pH 7.4, 0.05% Tween-20, 25 C. A general note: In EMSA bound probe runs differently from free probe, usually more slowly.

The target of series [4] is T2, ArcA-P (Shewanella oneidensis MR-1) (UniProt Q8EAB9).
T2 sequence: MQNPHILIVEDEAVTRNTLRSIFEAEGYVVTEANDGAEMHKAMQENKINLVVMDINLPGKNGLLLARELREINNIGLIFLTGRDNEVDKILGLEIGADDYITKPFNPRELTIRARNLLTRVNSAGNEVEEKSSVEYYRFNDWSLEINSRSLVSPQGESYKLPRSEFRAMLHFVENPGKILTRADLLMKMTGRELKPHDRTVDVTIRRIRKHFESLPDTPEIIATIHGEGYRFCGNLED
Nature of the series: EMSA. The conditions noted are these: EMSA: 2 mM EDTA, 20 mM KCl, 0.5 mM DTT, 4% Ficoll-400, pH 8.0, 2 ug poly(dI-dC), 10 nM probe, 10 uM cAMP for Crp; MST: 1x PBS pH 7.4, 0.05% Tween-20, 25 C.

The target of series [5] is T3, MBP-Crp-His6 (Shewanella oneidensis MR-1) (UniProt Q8EJ49).
T3 sequence: T1 sequence
In words: MST. As to conditions: EMSA: 2 mM EDTA, 20 mM KCl, 0.5 mM DTT, 4% Ficoll-400, pH 8.0, 2 ug poly(dI-dC), 10 nM probe, 10 uM cAMP for Crp; MST: 1x PBS pH 7.4, 0.05% Tween-20, 25 C.

Series [6] has as its target T2, ArcA-P (Shewanella oneidensis MR-1). In words: MST. As to conditions: EMSA: 2 mM EDTA, 20 mM KCl, 0.5 mM DTT, 4% Ficoll-400, pH 8.0, 2 ug poly(dI-dC), 10 nM probe, 10 uM cAMP for Crp; MST: 1x PBS pH 7.4, 0.05% Tween-20, 25 C.

For the substance nqr1 promoter probe (PnqrA1), the Kd in series [1] stood at 0.12 µM; in series [2], 0.56 µM.

In the case of “AATAACAACCTCAACAAACTCATGTAAATGGCTAAGTTATACCACGGAACAGATAAGAGATAACTACTTTAGTCTAACTAAACAGGCAATTTAGCATTAAAGATATTTCAGAAACAATAAACCACACGATAAAATTTGAGCAGCAAAAAGGGGTAGTGTTCATAATTCTGTGTCATTTCAGTAAAATATTCAAAAACAGGAATGACAC (double strand) [ndh promoter probe (Pndh)]”, the binding result in series [3], in series [4], in series [5] and in series [6] was “binds” throughout.

Take nqr2 promoter probe (PnqrA2): the Kd was determined as 2.02 µM in series [1] and 0.68 µM in series [2].
